Paper PMC7840181

Molecular target: CLAG3-tv2 (CLAG3h with C-terminal His10-FLAG-thrombin-TEV-HA-twinstrept-BC2 multi-tag) (Plasmodium falciparum)
Experiment: native MS; endogenous RhopH complex purified via CLAG3-tv2 (FLAG, then Ni-NTA), exchanged into 200 mM ammonium acetate pH 7.5, 0.01% Tween-20; Exactive Plus EMR

Substance	stoichiometry N
RhopH2 (from UniProt C0H571 20-1378) (natural protein)	1
RhopH3 (from UniProt Q8I395 25-897) (natural protein)	1
